Assay: Solubility in water
Type: physicochemical

CC(=O)N[C@H]1[C@H](O[C@H]2[C@H](O[C@H](C)C(=O)N[C@@H](C)C(=O)N[C@H](CCC(=O)N[C@@H](C)C(=O)N[C@H](C)C(=O)O)C(=O)O)[C@@H](NC(C)=O)C(O)O[C@@H]2CO)O[C@H](CO)[C@@H](O)[C@@H]1O (stereo partly drawn) [GMTP, N-acetylglucosaminyl-β(1-4)-N-acetylmuramoyl-l-alanyl-γ-d-glutamyl-l-alanyl-d-alanine]
solubility in water: water soluble
